Assay [1] concerns the target T1, porcine CD26 expressed on minipig T lymphocytes (porcine (minipig), UniProt P22411 1-766).
T1 construct: whole, on cells; Native CD26 on lymphocytes isolated from minipig peripheral blood; also called minipig CD26; Porcine Antigen as a transmembrane protein expressed on T lymphocytes
The experiment in a line: multiparametric flow cytometry on lymphocytes from minipig peripheral blood, CD3 (FL1-H) against CD26/CDina26 (FL2-H).

In assay [2] the target is T2, Human Antigen (purchased from Sigma CAT #D4943) (human, UniProt P27487 29-766, limits assumed).
T2 construct: Bought soluble protein injected in solution in Biacore; also called human CD26; Human Antigen (Ag)
T2 sequence (P27487 29-766 limits assumed): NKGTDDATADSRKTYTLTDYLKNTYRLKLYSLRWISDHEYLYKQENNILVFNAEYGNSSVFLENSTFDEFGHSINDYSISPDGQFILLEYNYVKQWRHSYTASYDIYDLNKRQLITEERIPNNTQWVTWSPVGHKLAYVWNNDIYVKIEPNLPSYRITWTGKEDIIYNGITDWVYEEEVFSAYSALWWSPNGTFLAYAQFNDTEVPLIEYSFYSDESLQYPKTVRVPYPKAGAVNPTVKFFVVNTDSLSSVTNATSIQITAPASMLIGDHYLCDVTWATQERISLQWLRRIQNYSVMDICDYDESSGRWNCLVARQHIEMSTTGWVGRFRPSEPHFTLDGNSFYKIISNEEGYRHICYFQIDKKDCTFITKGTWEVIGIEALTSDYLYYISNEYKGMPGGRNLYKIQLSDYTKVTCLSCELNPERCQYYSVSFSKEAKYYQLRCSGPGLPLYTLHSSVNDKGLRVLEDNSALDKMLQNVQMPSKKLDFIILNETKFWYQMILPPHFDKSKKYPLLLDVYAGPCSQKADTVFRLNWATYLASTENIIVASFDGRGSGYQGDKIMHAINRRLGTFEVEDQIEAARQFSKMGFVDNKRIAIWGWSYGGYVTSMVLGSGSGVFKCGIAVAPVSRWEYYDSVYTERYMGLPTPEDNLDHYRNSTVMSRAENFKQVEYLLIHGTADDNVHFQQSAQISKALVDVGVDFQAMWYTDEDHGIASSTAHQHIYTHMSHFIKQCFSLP
Kind of assay: Biacore T100, CDina26 captured by immobilized polyclonal anti-mouse Ig antibody, human antigen injected at two concentrations.

Assay [3] has as its target T3, Matrix 3 discontinuous CLIPS peptides covering residues 226 to 252 of human CD26 (human, peptides fixed on a CLIPS scaffold through thiol side chains of cysteines).
T3 construct: A set of peptide constructs from this range; also called protruding loop of CD26
The experiment in a line: CLIPS epitope mapping, discontinuous peptides, Matrix 3. The text has this:
The epitopes recognized by the CDina26 antibody produced by hybridoma cell line deposited as PD 12002 have been identified by CLIPS™ Epitope Mapping technology. See, e.g., U.S. Pat. Nos. 7,863,239 and 7,972,993, the disclosures of which are herein incorporated by reference in their entirety. Briefly, CLIPS™ technology structurally fixes peptides into defined three-dimensional structures. […] The CLIPS™ reaction takes place between bromo groups of the CLIPS™ scaffold and thiol side chains of cysteines. The reaction is fast and specific under mild conditions (Timmerman et al., J. Mol. Recognit. 2007; 20: 283-29).
CLIPS™ library screening starts with the conversion of the human CD26 target protein into a library of overlapping peptide constructs, using a combinatorial matrix design. On a solid carrier, a matrix of linear peptides is synthesized, which are subsequently shaped into spatially defined CLIPS™ constructs. Constructs representing several parts of a discontinuous epitope in the correct conformation bind the antibody with high affinity, which is detected and quantified. […] Affinity information is used in iterative screens to define the sequence and conformation of epitopes in detail.

Assay [4] concerns the target T4, Porcine Antigen (purchased from Sigma CAT #D 7052) (porcine, UniProt P22411 38-766, limits assumed).
T4 construct: Bought soluble protein; also called porcine CD26; Porcine Antigen (Ag)
The experiment in a line: Biacore, CDina26 captured by an immobilized polyclonal anti-mouse Ig antibody, Porcine Ag injected in solution.

Assay [5] has as its target Purified recombinant human CD26 (rhDipeptidyl peptidase IV; Creative BioMart; CAT #DPP4-116H) (human, UniProt P27487 29-766). The experiment in a line: SPR (Biacore), 25 C, CDina26 captured on anti-IgG2b CM5 chip, human CD26 as analyte at 30-810 nM. As for the experimental part: Surface Plasmon Resonance system (Biacore®) was used to determine the affinity of CDina26 for human CD26 according to standard protocols. Affinity measurements were taken at 25° C., immobilizing on carboxymethyl dextran chip (CM5) 10.000 RU of an anti-IgG2b antibody (GE Healthcare, 22-0648-97 AC). CDina26 was prepared as stock in HBS-EP (0.01M HEPES, pH 7.4, 0.15M NaCl, 3 mM EDTA, 0.005% Surfactant P20) running buffer in a final concentration of 50 μg/ml, and for each experiment 2.000 RU were reversibly immobilized on the chip by injection with a flow of 10 μl/min in a period of 180 seconds.
Purified recombinant human CD26 (rhDipeptidyl peptidase IV; Creative BioMart; CAT #DPP4-116H) was prepared in a stock concentration of 5.8×10^-6 M. CD26 was injected at increasing concentrations of 30×10⁻⁹, 90×10⁻⁹ M, 270×10⁻⁹ M and 810×10⁻⁹ M. The CD26 samples were injected with a flow of 10μl/minute; with HBS-EP buffer used as running buffer. A typical recording included a 3 minutes period of injection of the CD26 followed by a period of 8 minutes of dissociation. The raw binding data was analyzed according to standard methods. CM5 chip with immobilized anti-IgG2b antibody was regenerated by injection of 10 mM Glycine-HCl pH 1.7 with a flow of injection of 20 μl/min and for a period of 60 seconds.
A general note: In SPR one partner is held on a chip, and binding of the other changes the refractive index at the surface.

Sequence of Purified recombinant human CD26 (rhDipeptidyl peptidase IV; Creative BioMart; CAT #DPP4-116H) (P27487 29-766 limits assumed): as above
T1 sequence (P22411 whole entry): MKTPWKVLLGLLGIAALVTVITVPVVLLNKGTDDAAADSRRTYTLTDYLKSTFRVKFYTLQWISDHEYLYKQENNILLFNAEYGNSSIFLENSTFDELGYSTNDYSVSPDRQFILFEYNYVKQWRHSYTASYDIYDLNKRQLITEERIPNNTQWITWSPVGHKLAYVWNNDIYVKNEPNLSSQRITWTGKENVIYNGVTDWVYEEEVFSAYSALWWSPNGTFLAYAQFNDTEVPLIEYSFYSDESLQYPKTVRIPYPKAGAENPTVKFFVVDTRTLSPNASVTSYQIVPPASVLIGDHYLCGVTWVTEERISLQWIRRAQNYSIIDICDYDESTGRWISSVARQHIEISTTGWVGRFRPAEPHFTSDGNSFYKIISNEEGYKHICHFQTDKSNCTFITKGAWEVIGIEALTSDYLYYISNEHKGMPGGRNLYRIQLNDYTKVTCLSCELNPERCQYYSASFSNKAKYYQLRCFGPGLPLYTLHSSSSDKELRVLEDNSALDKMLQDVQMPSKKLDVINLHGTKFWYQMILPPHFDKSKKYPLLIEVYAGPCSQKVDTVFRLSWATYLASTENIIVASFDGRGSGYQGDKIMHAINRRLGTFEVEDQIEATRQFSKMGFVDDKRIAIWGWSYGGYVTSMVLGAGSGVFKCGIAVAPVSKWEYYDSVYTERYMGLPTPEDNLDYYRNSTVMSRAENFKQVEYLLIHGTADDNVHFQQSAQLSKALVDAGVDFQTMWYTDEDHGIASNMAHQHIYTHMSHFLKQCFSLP
T3 sequence (peptide, as listed by the source): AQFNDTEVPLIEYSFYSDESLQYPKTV
T4 sequence (P22411 38-766 limits assumed): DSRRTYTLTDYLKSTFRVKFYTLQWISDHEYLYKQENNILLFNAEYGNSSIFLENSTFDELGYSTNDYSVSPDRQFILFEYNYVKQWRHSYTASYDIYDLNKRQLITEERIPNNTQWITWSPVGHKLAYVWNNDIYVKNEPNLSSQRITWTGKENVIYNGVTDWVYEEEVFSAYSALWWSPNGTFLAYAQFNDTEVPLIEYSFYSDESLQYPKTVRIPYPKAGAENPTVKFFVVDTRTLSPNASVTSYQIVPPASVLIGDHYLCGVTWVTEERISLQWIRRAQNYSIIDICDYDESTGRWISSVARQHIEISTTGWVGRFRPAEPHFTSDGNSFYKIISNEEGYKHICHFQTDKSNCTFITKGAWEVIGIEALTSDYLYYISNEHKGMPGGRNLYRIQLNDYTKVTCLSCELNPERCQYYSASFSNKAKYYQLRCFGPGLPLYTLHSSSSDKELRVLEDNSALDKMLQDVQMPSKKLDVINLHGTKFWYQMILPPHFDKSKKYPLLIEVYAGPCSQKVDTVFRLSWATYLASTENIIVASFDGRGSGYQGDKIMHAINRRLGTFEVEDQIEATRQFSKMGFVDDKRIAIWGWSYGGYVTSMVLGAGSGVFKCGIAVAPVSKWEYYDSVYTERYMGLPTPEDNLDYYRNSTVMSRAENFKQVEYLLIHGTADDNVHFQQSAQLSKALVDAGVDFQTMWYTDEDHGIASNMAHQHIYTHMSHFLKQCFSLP

B1: CDina26 (antibody, mouse IgG2b, kappa, V domains shown)
VH: QVQLQQSGAELVKPGASVKLSCKASGYTFRSYDINWVRQRPEQGLEWIGWIFPGDGSTKYNEKFKGKATLTTDKSSSTAYMQLSRLTSEDSAVYFCARWTVVGPGYFDVWGAGTTVTVSS
VL: QIVLTQSPAIMSASPGEKVTITCSASSSVSYMNWFQQKPGTSPKLWIYSTSNLASGVPARFSGSGSGTSYSLTISRMEAEDAATYYCQQRSSYPNTFGGGTKLEIKR
notes: also called antibodies produced by the PD 12002 hybridoma cell line deposit; murine monoclonal antibody against CD26
As to B1, the binding result in assay [1], in assay [3] and in assay [4] was “no binding” in each case. For the same molecule, the dissociation rate constant (koff) in assay [2] stood at 2.8e-05 s⁻¹; in assay [5] it was 0.000132 s⁻¹. Moreover, in assay [5], the Kd is 5.02 nM. Further, the kon in assay [5] came to 26300 M⁻¹ s⁻¹.

For orientation: koff means the first-order rate constant of dissociation. The Kd is a measure of binding affinity in units of concentration. A word on the kon: it is the second-order rate constant of association.
